# Test results: the RNAGym collection of RNA variant scans (doi:10.7554/elife.90254)
# B1: LINE1-full (parent)
# chain: UACGUAGGUGGUUUUCCCCUGAUAGUGCUAAGGGGGCCUGGAAGUUUGGACUGGGCAGAGCUCAACACAGCGUGGCAAAGUGGCUGUGGCUAGACUGCCUCUCUGGAUUCCUCGUCACUCAGCAGGGCAUCUCUGAGAGAAAUGCC
# Variants of: B1
# Test: self-cleavage, relative activity (ratio to wild type); higher = more cleavage; in vitro, sequencing; the parent is a self-cleaving ribozyme
row,Variant,self-cleavage
1,G34A U45C,0.87
2,G33A A107G,1.52
3,G32C G60U,0.02
4,A31G A140G,1.79
5,G33U U47C,1.73
6,G33U C103U,1.15
7,A31U U132C,1.39
8,A31G G44A,2.09
9,G33A U102A,0.64
10,A30U U109C,1.33
11,A31G C90A,0.12
12,G33C A117U,0.85
13,A31U U134C,1.2
14,A31U U134A,0.9
15,G33A C76U,1.87
16,G32A A107C,1.91
17,G32A A107U,1.27
18,G32A A78G,0.47
19,G32C A142G,1.58
20,A31C U134A,1.26
21,A31U U104C,1.3
22,G32A A65U,0.1
23,G32A A65G,0.11
24,G32U A77C,1.31

row,Variant,self-cleavage
1,G32U A77G,3
2,A31C U45C,1.84
3,A31G A92G,0.09
4,G32U U85C,0.17
5,G32U U85A,0.09
6,G32U U102C,1.13
7,G32U A121U,0
8,G34C A141G,1.66
9,G34A U115A,1.08
10,G34A U115C,2.03
11,A31U U73C,1.51
12,A30U U143G,1.38
13,A30U U143C,0.77
14,A31C A138G,1.31
15,G32A A67U,0.09
16,A31U A79G,0.55
17,A31U A79U,2.19
18,G33C U96A,0.05
19,G34A G144A,1.31
20,A31G A117C,2.3
21,A31G C131U,0.61
22,A31G G34A,0.77
23,G34A G70A,0.11
24,G33A U45A,0.86

row,Variant,self-cleavage
1,A31C A59G,0.26
2,A31C A59C,0.61
3,A30U U119C,0.5
4,G34A U85C,0.12
5,G34A U85A,0.1
6,A31G G36A,0.99
7,A31G G36C,1.67
8,A30U U85C,0.1
9,G33C A69G,0.58
10,A31U G82U,0.74
11,G32A A142G,1.22
12,A31U C145A,1.65
13,A31G A94G,0.94
14,A31U A57U,0.24
15,A31C A129U,1.51
16,A31C U87A,0.07
17,G34A C103U,1.7
18,G32C U115C,1.56
19,G32C U108C,1.55
20,A31C U132C,2.33
21,G32A A138G,1.16
22,G34A A57G,1.21
23,G33C U104A,1.27
24,G32A U87A,0.03

row,Variant,self-cleavage
1,G32A A43G,1.25
2,G33C A129U,1.69
3,G32C U100C,2.13
4,G34C A42G,2.94
5,A31G U45A,0.85
6,A31G U45C,1.07
7,G34C A50U,1.81
8,A31U C110A,0.91
9,G32A A124U,0
10,G32A A124G,0.69
11,A30U U102C,0.75
12,A30U U102A,0.58
13,G33A A43G,1.29
14,A31U A117G,1.2
15,A31U A117U,0.95
16,A31U A136G,0.79
17,G33A A57G,0.56
18,G33C A79G,1.78
19,G34A A142G,1.45
20,G33A U91A,0.59
21,G32A A42G,1.27
22,G32U A117G,1.13
23,G33U A67U,0.17
24,G32U A50G,0.69

row,Variant,self-cleavage
1,A31C U109C,2.01
2,G34C,1.47
3,G34A,1.16
4,G33C U62C,0.1
5,G33C A65G,0
6,G33U A142G,0.88
7,G32A U143C,1.4
8,A31G A69G,0.78
9,G34A A64G,0.12
10,A31G G83A,0.69
11,G32U A78G,0.94
12,A31G G105A,1.29
13,A31G G105U,1.27
14,A30U U115C,1.16
15,G33U G75A,0.78
16,G33U A69G,0.69
17,A31U A142G,0.78
18,A31G A77G,2.49
19,G33U A59U,0.62
20,A31C U143A,1.01
21,G33U A50U,1.14
22,G32A C71U,0.91
23,A31U U143A,0.78
24,A30U U52C,1.09

row,Variant,self-cleavage
1,G34A U100C,1.37
2,A31G A129G,1.05
3,G32U A42G,1.07
4,G34A C120U,1.64
5,G32U U62C,0.06
6,G33A A141G,1.01
7,G32A U73C,1.49
8,A31G G126A,1.32
9,A31U C37A,1.53
10,G32C A59U,0.78
11,G32U U130A,1.7
12,A31C A79G,1.02
13,G34A A141G,1.41
14,A31G A79U,2.64
15,A31U G144U,1.03
16,A31U G144A,0.96
17,G33C A59G,0
18,A30U U81C,1.52
19,G33U A141G,1.32
20,A30U U39G,1.46
21,A30U U39C,0.85
22,G32C A78G,0.73
23,G32A U119C,1.29
24,G34C A77G,1.64

row,Variant,self-cleavage
1,G34C A77U,1.18
2,G34A A92G,0.08
3,A31G A64G,0.31
4,G32A G75C,0.65
5,A31U U87C,0.24
6,A30U U73C,1.8
7,A30U U73A,2.55
8,A31C G54A,1.02
9,G33U A57G,0.64
10,G33U A136G,1.7
11,G34A U108G,1.55
12,G34A U108C,1.16
13,G33U A94G,0.15
14,G32A A140G,1.61
15,G32A U96C,0.13
16,G34A C95A,0.07
17,G32A G97U,0.1
18,A31U U39A,1.05
19,A30U G114C,1.25
20,A31G C118U,1.73
21,G32A U47C,1.58
22,G32A U47A,1.37
23,A31U U102A,1.91
24,A31U U102C,1.05

row,Variant,self-cleavage
1,G32U,0.98
2,G32A,1.23
3,G32C,1.23
4,G32U C116U,1.15
5,G33A A117G,1.91
6,G34A A94G,0.18
7,A31C A140G,1.18
8,A31U A64U,0.42
9,G33A U132C,1.47
10,G33A A121G,1.28
11,A31G U39C,1.17
12,A31U U112A,1.8
13,G34A A43C,1.23
14,G34A A43G,0.73
15,A31U U130A,1.53
16,A31U U119A,1.17
17,A31G A124G,1.09
18,G34A A140G,0.5
19,A31G U104C,1.91
20,G33U C116U,1.17
21,G34A A79U,2.33
22,G34A A79G,1.11
23,G34C A140G,1.38
24,G33U U143C,0.61

row,Variant,self-cleavage
1,A31G A136G,1.37
2,A31G A136U,1.26
3,A30U U47G,0.8
4,A30U U47C,1.07
5,A31U C61A,0.13
6,A31C A141G,1.43
7,A31G G32A,1.25
8,A31G G32U,1.13
9,G32U U73C,1.1
10,A31U A129G,1.25
11,A31U U85C,0.28
12,A31U U85A,0.07
13,G33A A77U,1.47
14,G33C U46A,1.45
15,A31G C38U,0.99
16,G33U U134A,1.24
17,A31G U62C,0.13
18,G32A U81A,1.46
19,G32A U81G,1.36
20,A31G U115C,1.37
21,G32A C84U,0.21
22,G33U A79G,1.51
23,G33U A43U,0.54
24,G33U C101U,1.26

row,Variant,self-cleavage
1,A31U U100A,0.67
2,A31U U100G,1.23
3,A31U U100C,1.41
4,G33A C56U,0.35
5,G33A U115C,1.48
6,A31U G32A,1.56
7,G33U A124U,1.84
8,A31U C131U,1.06
9,G34A U52A,1.7
10,G34A U52C,1.1
11,G32C U45C,1
12,G32C U81C,0.55
13,G32C U81A,1.9
14,G33U U87A,0.03
15,A31U U46C,1.05
16,A31U A78U,1.57
17,A31U A78G,0.94
18,G33A A142G,1.2
19,G32A U62C,0.07
20,G32A U62A,0.08
21,G32A A92U,0.75
22,A31G U87A,0.13
23,G33A U109C,1.05
24,A31U G70A,0.26

row,Variant,self-cleavage
1,A31U A140G,0.81
2,A31U A140U,0.94
3,A31G C128U,1.02
4,G32A A94G,0.36
5,G32A U102C,1.62
6,A31U C51G,1.4
7,G33U A117G,1.39
8,G33U G114A,1.36
9,A31G C37U,1.6
10,A31G C37A,1.32
11,A31U G36U,0.81
12,G34A U102C,1.43
13,A31G G127C,2.39
14,G34A A42G,0.35
15,G34A U46C,1.27
16,G32A C113U,1.43
17,G32A U39A,1.66
18,G32C G35A,1.16
19,G34A A121U,1.22
20,G34A A121G,1.16
21,G33C A121G,0.21
22,G34C C56G,0.03
23,A31U U115A,1.08
24,A31U A65G,0.16

row,Variant,self-cleavage
1,A31U A65U,0.21
2,A30U U45A,1.14
3,A31U U81C,0.75
4,G32A A136U,0.45
5,G32A A136G,1.35
6,A30U G89U,0.03
7,G32U A79G,0.97
8,G33C U100C,1.63
9,A31G U112A,1.61
10,A30U U134A,0.68
11,G32A U52A,1.28
12,G33A A138G,1.36
13,A31U A42G,1.46
14,A31U C101U,0.58
15,G32C A141G,1.99
16,G32A A57U,0.16
17,G33A U96C,0.12
18,G33U U130A,0.9
19,A31U A141G,1.01
20,G33C C128U,0.92
21,A31C A69G,0.33
22,G32A U134C,1.22
23,A31U A77U,0.96
24,A31U A138G,1.26

row,Variant,self-cleavage
1,A31G U132A,0.94
2,G33A A50G,1.02
3,G32U A94G,0.2
4,G34C A107G,1.12
5,G34A A67G,0.35
6,A31U A69G,0.75
7,A31U U108C,1.3
8,G34A A107G,2.74
9,A31G U130A,1.26
10,A31G U130C,1.45
11,G33C U91C,0.41
12,G32U G83U,0.6
13,A31U A67U,0.3
14,G32A U85C,0.16
15,G32A U85A,0.14
16,G32U U39A,1.06
17,G33A U87C,0.2
18,A31U U91C,0.38
19,G33C U119C,1.8
20,A31U G34A,0.56
21,G34C A136G,1.79
22,A31U U47A,0.77
23,A31U C63G,0
24,G32U U119A,0

row,Variant,self-cleavage
1,A31G A138U,1.05
2,G34A A77G,1.88
3,A31C U47A,1.12
4,A31G A50G,1.42
5,G33A A136U,1.69
6,A31G A107G,1.09
7,G33C U87G,0.22
8,G33U A64U,0.41
9,G33U A64G,0.21
10,A31G A43U,0.89
11,G32C A77U,0.81
12,A31U G125U,1.37
13,G32A G89U,0.04
14,G32A U132C,2.03
15,A31U U45A,0.9
16,A31U U45C,1.17
17,A30U G72A,1.24
18,G34A A138G,1.68
19,G32U U52A,1.85
20,A31G A57U,0.3
21,A31G A57G,0.95
22,A30U G74C,1.27
